Consider two molecules from PMC11772769 (2024).

Where no end group is shown, it is not given here. The star is where a group is joined. 5FAM = O=C1OC2(c3ccc(O)cc3Oc3cc(O)ccc32)c2ccc(C(=O)*)cc21

What all share (test): FP
Assay [1] concerns the target T1, MBP-SNX17 L470G (UniProt Q15036 1-470, L470G).
T1 sequence: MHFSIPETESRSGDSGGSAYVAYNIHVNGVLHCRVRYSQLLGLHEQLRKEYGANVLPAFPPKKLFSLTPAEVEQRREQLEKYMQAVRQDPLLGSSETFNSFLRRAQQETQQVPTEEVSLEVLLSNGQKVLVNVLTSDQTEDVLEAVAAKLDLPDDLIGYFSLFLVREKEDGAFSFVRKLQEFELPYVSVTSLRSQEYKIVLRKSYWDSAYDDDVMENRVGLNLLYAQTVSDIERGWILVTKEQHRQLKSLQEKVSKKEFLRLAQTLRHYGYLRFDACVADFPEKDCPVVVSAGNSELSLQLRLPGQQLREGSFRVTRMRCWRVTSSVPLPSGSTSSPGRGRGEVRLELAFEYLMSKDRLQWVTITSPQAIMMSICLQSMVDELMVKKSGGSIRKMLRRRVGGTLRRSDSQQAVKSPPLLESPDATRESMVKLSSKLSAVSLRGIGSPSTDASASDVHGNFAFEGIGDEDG

Assay [2] deals with T2, MBP-SNX17 D467X (UniProt Q15036 1-466).
T2 chain: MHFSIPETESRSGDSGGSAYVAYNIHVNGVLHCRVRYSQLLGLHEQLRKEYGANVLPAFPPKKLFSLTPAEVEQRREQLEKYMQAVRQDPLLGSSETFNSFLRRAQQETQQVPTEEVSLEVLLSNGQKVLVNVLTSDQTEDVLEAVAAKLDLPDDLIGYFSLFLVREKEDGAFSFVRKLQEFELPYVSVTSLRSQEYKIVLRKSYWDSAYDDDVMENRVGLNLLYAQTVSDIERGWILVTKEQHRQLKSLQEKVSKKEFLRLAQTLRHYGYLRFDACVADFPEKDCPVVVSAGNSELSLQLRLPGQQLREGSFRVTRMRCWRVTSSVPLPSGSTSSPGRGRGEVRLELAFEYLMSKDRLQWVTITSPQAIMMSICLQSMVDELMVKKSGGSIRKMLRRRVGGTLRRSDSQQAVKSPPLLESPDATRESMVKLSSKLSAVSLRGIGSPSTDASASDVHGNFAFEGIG

Assay [3] addresses T3, MBP-SNX17 (full-length, wild-type) (UniProt Q15036 1-470).
T3 chain: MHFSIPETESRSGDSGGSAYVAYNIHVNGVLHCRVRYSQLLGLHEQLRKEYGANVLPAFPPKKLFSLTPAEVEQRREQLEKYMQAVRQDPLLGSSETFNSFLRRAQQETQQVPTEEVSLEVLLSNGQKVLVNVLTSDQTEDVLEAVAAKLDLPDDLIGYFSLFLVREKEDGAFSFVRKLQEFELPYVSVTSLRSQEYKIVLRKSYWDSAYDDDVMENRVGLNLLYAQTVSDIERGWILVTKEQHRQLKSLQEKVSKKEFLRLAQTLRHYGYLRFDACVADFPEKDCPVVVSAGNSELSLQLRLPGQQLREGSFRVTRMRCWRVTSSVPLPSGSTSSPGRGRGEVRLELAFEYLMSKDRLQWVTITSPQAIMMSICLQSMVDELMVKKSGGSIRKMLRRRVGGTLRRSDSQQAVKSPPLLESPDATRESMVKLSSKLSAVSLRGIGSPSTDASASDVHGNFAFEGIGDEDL

Broadly, the Kd is the equilibrium constant for the complex coming apart. Low values mean tighter binding, high ones weaker binding. On to 5FAM-KLITYDNPAYEGID [Peptide L2_(14mer)], for which the equilibrium dissociation constant (Kd) was 1100 nM in assay [1], 3200 nM in assay [2] and 1100 nM in assay [3].

Turning to 5FAM-MNVEIGNPTYKMYE [Peptide LRP1_(14mer)], the values for the Kd in assay [1], in assay [2] and in assay [3] were 2800 nM, 8500 nM and 3000 nM, respectively.
